B1: KaScape n=4 member GACT (dsDNA)
DNA 1: GCGCTGACTAGGAGTGGGATCCGGGGGGGG
DNA 2: CCCCCCCCGGATCCCACTCCTAGTCAGCGC
B2: type 4 (GACCA) (dsDNA)
DNA 1: GCGCTGACCAAGGAG
DNA 2: CTCCTTGGTCAGCGC
B3: type 6 (TGACC) (dsDNA)
DNA 1: GCGCTTGACCAGGAG
DNA 2: CTCCTGGTCAAGCGC
B4: type 1 (GACCG) (dsDNA)
DNA 1: GCGCTGACCGAGGAG
DNA 2: CTCCTCGGTCAGCGC
B5: type 2 (GACCT) (dsDNA)
DNA 1: GCGCTGACCTAGGAG
DNA 2: CTCCTAGGTCAGCGC
B6: type 3 (GACCC) (dsDNA)
DNA 1: GCGCTGACCCAGGAG
DNA 2: CTCCTGGGTCAGCGC
B7: type 5 (AGACC) (dsDNA)
DNA 1: GCGCTAGACCAGGAG
DNA 2: CTCCTGGTCTAGCGC
B8: type 8 (GGACC) (dsDNA)
DNA 1: GCGCTGGACCAGGAG
DNA 2: CTCCTGGTCCAGCGC
B9: type 7 (CGACC) (dsDNA)
DNA 1: GCGCTCGACCAGGAG
DNA 2: CTCCTGGTCGAGCGC

The target of the first data set is T1, AtWRKY1N (N-terminal WRKY DNA-binding domain) (UniProt Q9SI37 105-169). Description: KaScape pull-down + NGS; random n=4 pool; second strongest; KaScape: 2e-11 mol protein and 1e-10 mol dsDNA in 2 mL, 30 min, Ni beads 1 h at 4 C, washes in buffer C (25 mM HEPES pH 7.0, 100 mM NaCl); EMSA buffer not given. The following applies: protein: recombinant; tags: C-terminal His-tag (pET21b).
T1 sequence (Q9SI37 105-169): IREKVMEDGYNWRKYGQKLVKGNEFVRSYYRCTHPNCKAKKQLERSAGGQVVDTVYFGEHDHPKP
For the molecule B1, the binding result was “binds”.

A further data set deals with T1, AtWRKY1N (N-terminal WRKY DNA-binding …). Description: EMSA; protein:DNA 1:1 and 2:1; KaScape: 2e-11 mol protein and 1e-10 mol dsDNA in 2 mL, 30 min, Ni beads 1 h at 4 C, washes in buffer C (25 mM HEPES pH 7.0, 100 mM NaCl); EMSA buffer not given. To be noted: protein: recombinant; tags: C-terminal His-tag (pET21b).
Turning to B2, the binding result is given as “binds”.
Take B3: the binding result is listed as “binds”.
Still for that read-out and setting: the value for B4 was “binds”; that for B5 was “binds”.
Still for that read-out and setting: to B6 belongs “binds”; to B7, “binds”; to B8, “binds”.
B9: the binding result is given as “no binding”.

The values above are taken from publication PMC10547764, “KaScape: a sequencing-based method for global characterization of protein‒DNA binding affinity”.
